# B1: SP_1713, transcriptional regulator, NrdR family (LuMPIS construct) (natural protein)
# chain: MRCPKCGATKSSVIDSRQAEEGNTIRRRRECDECQHRFTTYERVEERTLVVVKKDGTREQFSRDKIFNGIIRSAQKRPVSSDEINMVVNRIEQKLRGRNENEIQSEDIGSLVMEELAELDEITYVRFASVYRSFKDVSELESLLQQITQSSKKKKER
# B2: SP_0194, conserved hypothetical protein (LuMPIS construct) (natural protein)
# chain: MSHDHNHDHEERELITLVDEQGNETLFEILLTIDGKEEFGKNYVLLVPVNAEEDEDGQVEIQAYSFIENEDGTEGELQPIPEDSEDEWNMIEEVFNSFMEE
# B3: SP_1354, ribosomal protein L7/L12 (LuMPIS construct) (natural protein)
# chain: MALNIENIIAEIKEASILELNDLVKAIEEEFGVTAAAPVAVAAADAADAGAAKDSFDVELTSAGDKKVGVIKVVREITGLGLKEAKELVDGAPALVKEGVATAEAEEIKAKLEEAGASVTLK
# B4: SP_1584, GTP-sensing transcriptional pleiotropic repressor CodY (LuMPIS construct) (natural protein)
# chain: MAHLLEKTRKITSILKRSEEQLQDELPYNAITRQLADIIHCNACIINSKGRLLGYFMRYKTNTDRVEQFFQTKIFPDDYVQGANMIYETEANLPVEHDMSIFPIESRDDFPDGLTTIAPIHVSGIRLGSLIIWRNDKKFEDEDLVLVEIASTVVGIQLLNFQREEDEKNIRRRTAVTMAVNTLSYSELRAVSAILGELNGNEGKLTASVIADRIGITRSVIVNALRKLESAGIIESRSLGMKGTYLKVLISDIFEEVKKRDY
# B5: SP_1881, glutamate racemase (LuMPIS construct) (natural protein)
# chain: MDNRPIGFLDSGVGGLTVVRELMRQLPHEEIVYIGDSARAPYGPRPAEQIREYTWQLVNFLLTKDVKMIVIACNTATAVVWEEIKAQLDIPVLGVILPGASAAIKSSQGGKIGVIGTPMTVQSDIYRQKIHDLDPDLQVESLACPKFAPLVESGALSTSVTKKVVYETLRPLVGKVDSLILGCTHYPLLRPIIQNVMGPKVQLIDSGAECVRDISVLLNYFEINRGRDAGPLHHRFYTTASSQSFAQIGEEWLEKEIHVEHVEL
# B6: SP_1540, single-strand binding protein Ssb (LuMPIS construct) (natural protein)
# chain: MINNVVLVGRMTRDAELRYTPSNVAVATFTLAVNRTFKSQNGEREADFINVVMWRQQAENLANWAKKGSLIGVTGRIQTRSYDNQQGQRVYVTEVVAENFQMLESRSVREGHTGGAYSAPTANYSAPTNSVPDFSRNENPFGATNPLDISDDDLPF
# Experiments:
# Assay in all cases: pull-down; LuMPIS: N-terminally MBP-tagged bait pulled down on amylose beads, N-terminally eGFP-luciferase-tagged prey detected by luciferase activity; both expressed in HEK cells, raw protein extracts; quadruplicates; LIR against MBP without ORF
# [1] = biological target: Dp-1 orf34, Hypothetical protein (LuMPIS construct) (phage Dp-1 of S. pneumoniae)
# [2] = biological target: Dp-1 orf44, Rho-like domain lipoprotein (LuMPIS construct) (phage Dp-1 of S. pneumoniae)
# [3] = biological target: Cp-1 orf17, Tail protein N (LuMPIS construct) (phage Cp-1 of S. pneumoniae)
# [4] = biological target: Cp-1 orfc, Hypothetical protein (LuMPIS construct) (phage Cp-1 of S. pneumoniae)
# [5] = biological target: Dp-1 orf31, Hypothetical protein (LuMPIS construct) (phage Dp-1 of S. pneumoniae)
# [6] = biological target: Cp-1 orfb, Hypothetical protein (LuMPIS construct) (phage Cp-1 of S. pneumoniae)
# [7] = biological target: Dp-1 orf9, No similarity (LuMPIS construct) (phage Dp-1 of S. pneumoniae)
# [8] = biological target: Dp-1 orf32, Hypothetical protein (LuMPIS construct) (phage Dp-1 of S. pneumoniae)
# [9] = biological target: Dp-1 orf58, Holin (LuMPIS construct) (phage Dp-1 of S. pneumoniae)
# [10] = biological target: Dp-1 orf48, Hypothetical protein (LuMPIS construct) (phage Dp-1 of S. pneumoniae)
# [11] = biological target: Dp-1 orf29, Hypothetical protein (LuMPIS construct) (phage Dp-1 of S. pneumoniae)
# [12] = biological target: Dp-1 orf4, Queuosine biosynth. protein QueE (LuMPIS construct) (phage Dp-1 of S. pneumoniae)
# [13] = biological target: Dp-1 orf14, dUTPase (LuMPIS construct) (phage Dp-1 of S. pneumoniae)
# [14] = biological target: Cp-1 orf6, Hypothetical protein (LuMPIS construct) (phage Cp-1 of S. pneumoniae)
# [15] = biological target: Cp-1 orf10, Connector protein (LuMPIS construct) (phage Cp-1 of S. pneumoniae)
# [16] = biological target: Dp-1 orf18, DNA polymerase III, delta’ subunit HolB (LuMPIS construct) (phage Dp-1 of S. pneumoniae)
molecule,measurement,setting,value
"SP_0446, acetolactate synthase, small subunit (LuMPIS construct) (natural protein)",LIR (luminescence intensity ratio against MBP alone),[1],12
same,LIR (luminescence intensity ratio against MBP alone),[2],6
"SP_0979, oligoendopeptidase F (LuMPIS construct) (natural protein)",LIR (luminescence intensity ratio against MBP alone),[3],14
same,LIR (luminescence intensity ratio against MBP alone),[4],3
"SP_1153, hypothetical protein (LuMPIS construct) (from UniProt A0A0H2UQ84 1-392) (natural protein)",LIR (luminescence intensity ratio against MBP alone),[5],6
"SP_1213, conserved domain protein (LuMPIS construct) (from UniProt A0A0H2UQB9 1-424) (natural protein)",LIR (luminescence intensity ratio against MBP alone),[6],240
"SP_1395, putative phosphate transport system regulatory protein PhoU (LuMPIS construct) (from UniProt A0A0H2UQU1 1-217) (natural protein)",LIR (luminescence intensity ratio against MBP alone),[7],23
"SP_1504, TPR domain protein (LuMPIS construct) (from UniProt A0A0H2UQR2 1-403) (natural protein)",LIR (luminescence intensity ratio against MBP alone),[7],19
"SP_1536, conserved hypothetical protein (LuMPIS construct) (from UniProt A0A0H2UQS7 1-249) (natural protein)",LIR (luminescence intensity ratio against MBP alone),[2],10
"SP_1575, conserved hypothetical protein (LuMPIS construct) (from UniProt A0A0H2UQU9 1-225) (natural protein)",LIR (luminescence intensity ratio against MBP alone),[2],14
"SP_1669, MutT/nudix family protein (LuMPIS construct) (from UniProt A0A0H2URA0 1-203) (natural protein)",LIR (luminescence intensity ratio against MBP alone),[8],10
"SP_1725, sucrose operon repressor (LuMPIS construct) (natural protein)",LIR (luminescence intensity ratio against MBP alone),[2],3
"SP_1731, conserved hypothetical protein (LuMPIS construct) (from UniProt A0A0H2UR87 1-252) (natural protein)",LIR (luminescence intensity ratio against MBP alone),[9],3
"SP_1746, conserved hypothetical protein (LuMPIS construct) (from UniProt A0A0H2URF8 1-197) (natural protein)",LIR (luminescence intensity ratio against MBP alone),[10],3
"SP_1751, putative transporter, CorA family (LuMPIS construct) (from UniProt A0A0H2UR86 1-302) (natural protein)",LIR (luminescence intensity ratio against MBP alone),[9],5
"SP_1915, hypothetical protein (LuMPIS construct) (from UniProt A0A0H2URK9 1-149) (natural protein)",LIR (luminescence intensity ratio against MBP alone),[8],5
"SP_2012, glyceraldehyde 3-phosphate dehydrogenase (LuMPIS construct) (natural protein)",LIR (luminescence intensity ratio against MBP alone),[11],3
"SP_2036, PTS system, IIA component (LuMPIS construct) (from UniProt A0A0H2URW0 1-161) (natural protein)",LIR (luminescence intensity ratio against MBP alone),[12],454
"SP_2125, conserved hypothetical protein (LuMPIS construct) (from UniProt A0A0H2URY4 1-113) (natural protein)",LIR (luminescence intensity ratio against MBP alone),[13],45
"SP_2157, alcohol dehydrogenase, iron-containing (LuMPIS construct) (from UniProt A0A0H2USH2 1-383) (natural protein)",LIR (luminescence intensity ratio against MBP alone),[1],35
same,LIR (luminescence intensity ratio against MBP alone),[2],13
"SP_2168, putative fucose operon repressor (LuMPIS construct) (from UniProt A0A0H2USI3 1-257) (natural protein)",LIR (luminescence intensity ratio against MBP alone),[5],5
same,LIR (luminescence intensity ratio against MBP alone),[10],3
same,LIR (luminescence intensity ratio against MBP alone),[7],15
B1,LIR (luminescence intensity ratio against MBP alone),[14],6
B2,LIR (luminescence intensity ratio against MBP alone),[8],5
B3,LIR (luminescence intensity ratio against MBP alone),[15],12
B4,LIR (luminescence intensity ratio against MBP alone),[16],6
B5,LIR (luminescence intensity ratio against MBP alone),[15],6
B6,LIR (luminescence intensity ratio against MBP alone),[8],3

# From paper PMC4840434, “The interactome of Streptococcus pneumoniae and its bacteriophages show highly specific patterns of interactions among bacteria and their phages” (Scientific Reports, 2016)
